From patent US20260217833A1 (APTEVO RESEARCH AND DEVELOPMENT, published 2026)

Key:
[1] = molecular target: T1, Human PD-L1 full-length (human, UniProt Q9NZQ7 19-290); assay: MSD cell binding, CHOK1SV/human PD-L1 cells; x axis without printed unit
T1 construct: also called PDL01021; CHOK1SV/huPDL1

[2] = molecular target: T2, Cyno PD-L1 full-length (cynomolgus, UniProt Q9NZQ7 19-290 (human entry)); assay: MSD cell binding, CHOK1SV/cynomolgus PD-L1 cells; x axis without printed unit
T2 construct: also called PDL01022; CHOK1SV/cynoPDL1
T2 sequence (Q9NZQ7 other isoform, or with tags, fused parts or gaps): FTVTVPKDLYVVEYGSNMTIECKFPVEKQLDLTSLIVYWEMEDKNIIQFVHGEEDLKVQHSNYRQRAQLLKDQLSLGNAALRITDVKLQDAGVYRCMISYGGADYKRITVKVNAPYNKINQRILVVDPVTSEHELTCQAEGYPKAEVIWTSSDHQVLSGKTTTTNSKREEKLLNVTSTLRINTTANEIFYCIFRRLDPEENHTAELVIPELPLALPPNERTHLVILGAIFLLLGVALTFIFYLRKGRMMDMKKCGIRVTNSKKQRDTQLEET

[3] = molecular target: T3, human CD40 full-length (human, UniProt P25942 21-277); assay: flow cytometry, CHOK1SV/human CD40 cells
T3 construct: Also used for CD40 of Daudi cells, of CD40-expressing HEK293 cells and of the BPS CD40/NFkB HEK293 reporter cells where the row says so; also called CD4001012; CHOK1SV/CD40

T1 sequence (Q9NZQ7 19-290): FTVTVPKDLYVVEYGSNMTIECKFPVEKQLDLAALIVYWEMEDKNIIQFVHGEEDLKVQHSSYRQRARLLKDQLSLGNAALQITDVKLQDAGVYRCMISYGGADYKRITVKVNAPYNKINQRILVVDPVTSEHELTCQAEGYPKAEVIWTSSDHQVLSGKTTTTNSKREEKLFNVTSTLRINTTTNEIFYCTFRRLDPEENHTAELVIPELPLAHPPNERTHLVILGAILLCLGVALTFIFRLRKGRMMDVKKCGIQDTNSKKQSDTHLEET

binding result [3] | Binder | further results
 | PDL01033 (Fc fusion, also called 3G11HL x human IgG1 WT Fc; not shown: human IgG1 WT Fc (hinge-CH2-CH3) and its junction to the scFv) scFv: EVQLQESGPSLVKPSQTLSLTCSVTGDSITSGYWNWIRKFPGKKLEYMGYISYTGSTYYNPSLKSRISIARDTSKNQYFLQLNSVTTEDTATYYCTRGENWDGGYFDYWGQGTTLTVSSGGGGSGGGGSGGGGSGGGGSDIQMTQTTSSLSASLGDRVTISCSASQGIRNYLNWYQQKPDGTVKLLIYYTSTLHSGVPSRFSGSGSGTDYSLTISNLEPEDIATYYCQQYSKLPWTFGGGTRLEIK | binding result [1]: binds; binding result [2]: binds
binds | CD4001093 (Fc fusion, As m65; not shown: wildtype IgG1 Fc region) DVVMTQSPDTLSLSPGERATLSCRSSQSLVHYNGYTYLHWYQQQPGQAPRLLIYKVSNRFSGIPDRFSGSGSGTDFTLTISRLEPEDFAVYFCSQTTHVPLTFGQGTKLEIKGGGGSGGGGSGGGGSGGGGSEVQLLESGGGLVQPGGSLRLSCAASGFTFSSYAMSWVRQAPGKGLEWVASISSAGTYIYYTDSVKGRFSISRDNSKNTLYLQMNSLRAEDTAVYYCARHGNGYDPLWYFDVWGQGTTVTVSS | 
binds | CD4001095 (Fc fusion, As m65; not shown: wildtype IgG1 Fc region) DVVMTQSPDTLSLSPGERATLSCRSSQSLVHYNGYTYLHWYQQQPGQAPRLLIYKVSNRFSGIPDRFSGSGSGTDFTLTISRLEPEDFAVYFCSQTTHVPLTFGQGTKLEIKGGGGSGGGGSGGGGSGGGGSQVQLVESGGGLVQPGGSLRLSCAASGFTFSSYAMSWVRQAPGKGLVWVASISSAGTYIYYADSVKGRFTISRDNAKNTLYLQMTSLRAEDTAIYYCARHGNGYDPLWYFDVWGQGALVTVSS | 
 | PDL01047 (Fc fusion, not shown: a dimerising Fc or GST; small tags and cut ends, also called 7A3-2LH x human IgG1 WT Fc) scFv: DVQITQSPSYLAASPGETITINCRASKSISKYLAWYQEKPGKTNKLLIYSGSTLQSGIPSRFSGSGSGTDFTLTISSLEPEDFAMYYCQQHNEYPFTFGAGTKLEIKGGGGSGGGGSGGGGSGGGGSEVQLQESGPSLVKPSQTLSLTCSVTGDSITSGYWNWIRKFPGNRLEYMGFRSYSGTTYYNPSLKSRISITRDTSKNQYYLQLNSVTTEDTATYYCARFSDFGSSENTMDYWGQGTSVTVSS | binding result [1]: binds; binding result [2]: binds
binds | CD4001101 (Fc fusion, CDR-grafted 1D5 scFv in scFv-hFc format; not shown: the human Fc (hinge-CH2-CH3) of the scFv-hFc format) scFv: DIQMTQSPSTLSASVGDRVTITCKSSQSLLFSVNQKNYLAWYQQKPGKAPKLLIYWASTRESGVPARFSGSGSGTEFTLTISSLQPDDFATYYCQHYYSYPWTFGQGTKVEVKGGGGSGGGGSGGGGSGGGGSQVQLVQSGAEVKKPGASVKVSCKASGYTFSTSWIEWIKQAPGQGLEWIGEILPGSGSTNYNENFRNKATFTADTSISTAYMELSRLRSDDTAVYYCARGDDGSYVRWYFDVWGQGTLVTVSS | 
binds | CD4001102 (Fc fusion, As m82; not shown: the human Fc (hinge-CH2-CH3) of the scFv-hFc format) scFv: DIQMTQSPSSLSASVGDRVTITCKSSQSLLFSVNQKNYLAWYQQKPGKAPKLLIYWASTRESGVPSRFSGSGSGTDFTFTISSLQPEDIATYYCQHYYSYPWTFGGGTKVEIKGGGGSGGGGSGGGGSGGGGSQVQLVQSGAEVKKPGASVKVSCKASGYTFSTSWIEWIKQAPGQGLEWIGEILPGSGSTNYNENFRNKATFTADTSISTAYMELSRLRSDDTAVYYCARGDDGSYVRWYFDVWGQGTLVTVSS | 
 | CD4001086 (Fc fusion, Partly humanized 5B9 scFv on the N-terminus of a wildtype IgG1 Fc; not shown: wildtype IgG1 Fc region) EVVMTQSPGTLSLSPGERATLSCRSSQSLVHYNGYTYLHWYQQKPGQAPRLLIYKVSNRFSGIPARFSGSGSGTDFTLTISRLEPEDLAVYFCSQTTHVPLTFGQGTKVEIKGGGGSGGGGSGGGGSGGGGSEVQLVESGGGLVQPGRSLRLSCAASGFTFSSYAMSWVRQAPGKGLEWVASISSAGTYIYYADSVQGRFTISRDNGKNSLYLQMNSLRAEDTALYYCARHGNGYDPLWYFDVWGQGTMVTVSS | EC50 (read off the curve) [3]: ~2 nM
binds | CD4001087 (Fc fusion, As m65; not shown: wildtype IgG1 Fc region) EVVMTQSPDTLSVSPGERATLSCRSSQSLVHYNGYTYLHWYQQKPGQVPRLLIYKVSNRFSGVPARFTGSGSGTEFTLTISSLQSEDFAVYFCSQTTHVPLTFGQGTKLEIKGGGGSGGGGSGGGGSGGGGSEVQLVESGGGLVQPGRSLRLSCAASGFTFSSYAMSWVRQAPGKGLEWVASISSAGTYIYYADSVQGRFTISRDNGKNSLYLQMNSLRAEDTALYYCARHGNGYDPLWYFDVWGQGTMVTVSS | 
 | CD4001097 (Fc fusion, As m65; not shown: wildtype IgG1 Fc region) EVVMTQSPGTLSLSPGERATLSCRSSQSLVHYNGYTYLHWYQQKPGQAPRLLIYKVSNRFSGIPARFSGSGSGTDFTLTISRLEPEDLAVYFCSQTTHVPLTFGQGTKVEIKGGGGSGGGGSGGGGSGGGGSQVQLVESGGGLVKPGGSLRLSCAASGFTFSSYAMSWVRQAPGKGLEWVASISSAGTYIYYADSVKGRFTISRDNAKNSLYLQMNSLRAEDTAVYYCARHGNGYDPLWYFDVWGAGTTVTVSS | EC50 (read off the curve) [3]: ~4 nM
binds | CD4001092 (Fc fusion, As m65; not shown: wildtype IgG1 Fc region) DVVMTQSPDSLAVSLGERATINCRSSQSLVHYNGYTYLHWYQQKPGQPPKLLIYKVSNRFSGVPDRFSGSGSGTDFTLTISSLQAEDVAVYFCSQTTHVPLTFGAGTKLELRGGGGSGGGGSGGGGSGGGGSEVQLVESGGGVVQPGRSLRLSCAASGFTFSSYAMSWVRQAPGKGLEWVASISSAGTYIYYADSVKGRFTISRDNSKNTLYLQMNGLRAEDTAVYYCARHGNGYDPLWYFDVWGQGTLVTVSS | 
binds | CD4001091 (Fc fusion, As m65; not shown: wildtype IgG1 Fc region) DVQMTQSPILLSASVGDRVTITCRSSQSLVHYNGYTYVHWYQQRTNGSPRLLIYKVSNRFSGVPDRFSGSGSGTDFTLTISSLQPEDIADYFCQQTTHVPLTFGAGTKVEIKGGGGSGGGGSGGGGSGGGGSEVQLVESGGGVVQPGRSLRLSCAASGFTFSSYAMSWVRQAPGKGLEWVASISSAGTYIYYADSVKGRFTISRDNSKNTLYLQMNGLRAEDTAVYYCARHGNGYDPLWYFDVWGQGTLVTVSS | 
binds | CD4001096 (Fc fusion, As m65; not shown: wildtype IgG1 Fc region) DVQMTQSPILLSASVGDRVTITCRSSQSLVHYNGYTYVHWYQQRTNGSPRLLIYKVSNRFSGVPDRFSGSGSGTDFTLTISSLQPEDIADYFCQQTTHVPLTFGAGTKVEIKGGGGSGGGGSGGGGSGGGGSQVQLVESGGGLVQPGGSLRLSCAASGFTFSSYAMSWVRQAPGKGLVWVASISSAGTYIYYADSVKGRFTISRDNAKNTLYLQMTSLRAEDTAIYYCARHGNGYDPLWYFDVWGQGALVTVSS | 
binds | CD4001098 (Fc fusion, As m65; not shown: wildtype IgG1 Fc region) DVQMTQSPILLSASVGDRVTITCRSSQSLVHYNGYTYVHWYQQRTNGSPRLLIYKVSNRFSGVPDRFSGSGSGTDFTLTISSLQPEDIADYFCQQTTHVPLTFGAGTKVEIKGGGGSGGGGSGGGGSGGGGSQVQLVESGGGLVKPGGSLRLSCAASGFTFSSYAMSWVRQAPGKGLEWVASISSAGTYIYYADSVKGRFTISRDNAKNSLYLQMNSLRAEDTAVYYCARHGNGYDPLWYFDVWGAGTTVTVSS | 
binds | CD4001094 (Fc fusion, As m65; not shown: wildtype IgG1 Fc region) DVQMTQSPILLSASVGDRVTITCRSSQSLVHYNGYTYVHWYQQRTNGSPRLLIYKVSNRFSGVPDRFSGSGSGTDFTLTISSLQPEDIADYFCQQTTHVPLTFGAGTKVEIKGGGGSGGGGSGGGGSGGGGSEVQLLESGGGLVQPGGSLRLSCAASGFTFSSYAMSWVRQAPGKGLEWVASISSAGTYIYYTDSVKGRFSISRDNSKNTLYLQMNSLRAEDTAVYYCARHGNGYDPLWYFDVWGQGTTVTVSS | 
